The NTF2 design screens of Basanta et al. (2020)

assay: protease stability score; higher = more stable; yeast display proteolysis, trypsin and chymotrypsin;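 further: log10 excess protease needed over predicted unfolded state with 0 meaning unfolded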

Compared with “DEDKHAHELAKKLQKVWEEGAEEKQQELVDEDDRKNIGEHTYNGEEQLRRDLDKLRKDADHVDMKLKQIRFQGDKARIDMVVSQTVNGKRNTDRFTVEARLNNGRLRIKQVTKN”, “DEDKHAKRVMENLTRAMNQGDKRRAADMVDPNVRLVIGDKEYHGRHQFRRAIKELVDRADHIEIDVRDVKTKNGRVQAHAHVEATYNGKKNDFKMVAEVEVQGENVVVHQITLK” is higher in protease stability score: 0.813 for the first, 1.13 for the second.

Compared with “DEDKHAQDHMDQLTRLRKHGNFEKLANMADEDVEVHYGDKQVHGREQVVKTIKSEADDVDHFDVKVQEYHVQGDHIHVVNEFTLERNGQYRTDEQQFTVQITNGSIRIKNMTKK”, “DEDKHVHRAFEEMLTVMEKGNEDEVKRLVDKDVRVHIGDKSYRGRTNVAKQIVDWARRADHIEIEVTEIDIQGDQVTMRATAHATHNGKTQSYDFTIILRIENGRAVIHSWHVS” is higher in protease stability score: -0.475 for the first, 0.923 for the second.

First: DEDKKADEFMKRWIDNLQNGNEDELRKLIDPNARLDIGDKTLHGREDIVHHLSETLKRVDHLEIRVEHIEVQGDKATFVYHITMRTNGRTHSSEVQFEAEEHNGNLIIKSIHER
Second: DEDKKKHDLIHTFLTLQHNGDFKQLARMFDPNAKVRVGDKDIRGREQIEKMFEKVRESVDRVSVSLTHMDNHGDKVRMEARVTQHVNGRNHDFTITITFRQVGDKVRASHQSVS
The protease stability score of the first is higher: 1.57 for the first, 0.584 for the second.

Compared with “DEDKLDHLARKAAEIMVQGDPDKFRDMFDPNAKLRYGDKELRGREEADKAIEEMQKRVDSSDVEDITAHNGRANAVLVLNHNGRHKRFVLVVDVRNGRATKASMHDD”, “DEDKLKSMFRQLQRVLTQGNPHDARKLFDEDAHLVVGDKRWTGREEVVKFIEELTRRYDHLEIKSFSVSNGRMVVNASAHVNGKSIDIHYIMEVDNGRVKYLRVDVRNEEELKKVLS” is higher in protease stability score: -0.062 for the first, 1.27 for the second.

First: DEDKLRDVAKRLQEIIHTNNPDDLNKQADKDARVQVGDKEYKGRRDVYKFMETLKHQVDQIEIHDVKFDGDHAHFHVMMNVNGKKVEVHIIMEVENGKVKELNFDPKNMEQLDK
Second: DEDKLREVAEEMNKGDPQTLADNADKDARLRVGDREWHGREDVEKFNNQWRREVDHVDIERVTVSPNRVEAVYVVTVNGKRIHAKFEAKVHDGRIKEMTVSVTNPEQQKDLERQVD
The protease stability score of the first is higher: 0.708 for the first, -0.1 for the second.

First: DEDKLTDKAHQIIRALETGDPDQIRNLAPPNVRFDYGDKRYHGREKAEERAKRERENIDHMEIKDFDVQGNKIQIRAVVEHNGRSREFVVTFEQNNGTLRFARMQSK
Second: DEDKLTRVEDFLRLQEQNNEDELLKQMDPNATQRYGNKHVHGSSEVKRFLHRLHREMRIRVEMKSVEVHGDEVVMKADFSKTFNGRPETLTATVVFKVHNGRIQKIIFEERK
The protease stability score of the first is lower: -0.342 for the first, 1.41 for the second.

First: DEDKMKEIAKKFMDYLVNGHADEVRKMGKEGVRVHVGDTTIQGPDQLKEYVKKFKDQGVHNEYKEEEVKGDTITMHTKAQLGNAEVDFEVHYVVKGDKVEKFEVKTDKKQQEKFKKS
Second: DEDKMKEVIEKVLRMLETGDPHEASKLADENAKIRYGDKTYHGRDQVHELLDRITKRVDHVEIKDFSVQGEQLVLHFVLNINGKNKEVVLVATVHNGRIKSLHVDDQ
The protease stability score of the first is lower: -0.352 for the first, 1.26 for the second.

Compared with “DEDKMKSILTVAQEGDPDEMKRQADEDARVHIGDKRVHGRESFQKAMDEYTKAVDSQHVKRVSSRENRVKVTAVLRFNGSHIDVVVQIRAHNGRIEEIIFRVTDPKQKTTLKKIIS”, “DEDKMLKIAQEMAEAVVNGNVEQMKKQAHEGVQVHVGDEEVHGPDQLEEYVKKFKDQGVEVHYKETEHKGDTVTLKTTAVLGDAQVEFEAHYVVKGDKLQRFEVKLNKEQLKDFRKS” is higher in protease stability score: 0.053 for the first, 0.242 for the second.

Going from “DEDKMLKVAKEAVEAITKGNAEQIKKVGKEGVQVTFGDEKYHGPDQLEEYVKKVKDQGNHIEYKEQEFKGDTATVKTEAEKGDQKVTFEVHYQVKGNKLDRLEVRFDKEQQKKFEQS” to “DEDKNKEAVERFLHNLENGDWQSLADLADKNAKVQIGDETVSGRESAQNELRKFAERVDHVDYHDMTVQGDKFEVVFQEDHNGRKRKVVAEFRVKNGRFKHVVFDDG”, the protease stability score rises from -0.256 to -0.008.

First: DEDKNKKFADKVVRALEQNNEEEMNELFPPDARVEVGDKQIHGREEIQKYMQKIRDQVDHVEVKSMEVDGDKITVHVTVHHNGTSRTVVFIFHVRNGRLTEMKVKTG
Second: DEDKNKKRAEEWQRILEDNDEERFSKLADKDVRFVIGDKEVHGSEQAETWIRTIKHRVDHIQLEDMKVNGNKIVIDLVMVHNGRKHRYKVVMEFHNGSVKYVQYNDS
The protease stability score of the first is higher: 0.04 for the first, -0.06 for the second.

Going from “DEDKNNRDMQDMIRAVITNDEKRVQELMDPNASVTVGDHTFKGTEAVTHLITDLRNHIDHVELNSVSVHNGKAKADMVFTVNGQHVKIEMNAQAHNGKVTQFDVSARSEEEHKKYKQ” to “DEDKQAKEMMKRFVHMMQEGDPSEAKRLFDKNARLVVGDKRFHGQHEASKFAEEIKKRYDKVHVELKDLKVHGDKVDAKAKVVLNDNGQKDTHEVVITALFHNGRIKVQEVRVQ”, the protease stability score rises from -0.542 to 0.983.

First: DEDKQHEFATRNVKAWETNDENQMRRLMDPNAKVRIGDKEYRGREEILRLLNEFKKRVDHVQVKSYDVHNGHVHINIVASVNGQRHEMHVKFQFHNGEIVKMQIDDS
Second: DEDKQLHELFERLVEAIRNGDPKKYQDNADENAKIRVGDKEYTGREQLEKLVEDIRKDVDHLEVDFKRVKVEGDKATAIVKVRANFNGKNDDTMYQYQAKIHGDKIHVVNVQQS
The protease stability score of the first is higher: 0.203 for the first, 0.165 for the second.

First: DEDKQRKRAETAAHIVENNNPDEQNKLADKDVTMQVGETQVHGREDLKELMEEMREQFDHIRVRSFDAHGNKVRLRFHAEYNGVTLEFVIINNYHNGKVQSINLRVTNPEEFRKAQG
Second: DEDKQRKTADEIQKVIKQGDEKKAEDLFDENAKLSIGDKFYRGKEDFKRWFRSLRDRIDHFQVKDLEVDGERAEFVVVFHVNGKNVEMVIEIHVHNGKVKHARVNPEDERKLNT
The protease stability score of the first is lower: 0.122 for the first, 1.05 for the second.

First: DEDKRAREAAETAIQALRTGDPDKMVKLMDPNARVRVGDKTVTGHEEIRRWMQTIQDQIDHADITVESLTVNNGRAELIFVANFDRNGRTERTRYNLEIDVRGDKVQAHQMDHG
Second: DEDKRARKFADTMRKVLEKGNEEEFRDMMDKDVSFKYGDKEVRGREEAAKRLKDTVKRVDRVEVNIKSIHVQGDKVSIDMLIVNDHNGKHHHRRLVFYAKDDNGKLVVVKVTER
The protease stability score of the first is lower: 1.22 for the first, 1.86 for the second.

Compared with “DEDKRKLVEDLIEAEERGDNERIKELADKDAEYIYGDKTVEGREEHAKEVKKKHDQQRVKITSMRINAHGDKIQVSIEYTVEDNGQPRRARVHIKFVIHNGRFQSMHIQDHR”, “DEDKTAEQVAETIQKIWEKGDPTKMEKLFDPNASINVGEKTVKGREKIFTEAKKLMKEADHVRVTVQHVEARGDHVIVRFTFTLHVNGKNRKHEVEINAEDKNGHLRARDIKMR” is higher in protease stability score: -0.253 for the first, 0.351 for the second.

Going from “DEDKTMRELIRRLDKNLKEGDPSKAREQADKDARANIGEKRVTGRKRLDEEVKTLLDSYDHIRVHLKEVRVENGSAVARVDYHYDQNGQEKSKEVILHARFQGDRLTLEQMTMP” to “DEDKVAHDMMKEIQSIFERGDRDTWRRMFDPNAEMHVGDKRIHGREHFSRWAQRSVERVDHHEMHVRSVSVDNGTITVSAVEVENVNGHEDKRRFVVRANLEGDKVQWKRRSEQ”, the protease stability score rises from 0.043 to 0.096.

Going from “DEDKVERLKHMWKVVEEGDEDKLREQFDKDASVTVGDKVLTGRENLARHWKRIRDELRFSMTMEKVEVHNGVVDIRVTATEDNNGRPQHKVADVRVDMHNGRIKVLEVDETK” to “DEDKVKKIAEELWKAISNGDEERMKKLMRDDVRAQVGDTEVHGREHVVHQLATFAKQVDHLTMETYDIRGNHVTFRFQARVNGKRVQIDMVIHVSNGRIKELRIDPKQVKELES”, the protease stability score rises from 0.154 to 1.22.

Compared with “DEDKVNEFMRHFLDVFETGNEKDVKKMADPNAKIEYGDKTLHGRENLRKVIADWRKRVDRIQIEHVDLQGNKARIIVVLNINGRNIRVDIDVNVHNGEIKSIRFEFTDPKTLQRATS”, “DEDKVRELVKKAFKAIVNGNEEEVRKLLDPNVKYKYVDKEFEGEEVAKFLVEMVRKLGAKVETEKTHIEGNTARATFVYKLGDQKVQTHAEVKYEGDKVKEVRVEMTDEDKKQLHRG” is higher in protease stability score: 0.649 for the first, 1.17 for the second.

Going from “DEDKVRKFQEYIEAYRRGDEQKLLKLMDPNVHVEIGDRRYHGHEDMEKILHKEIREIRVDVKIQSIEVRNGHITAHLVMSVNVNGHPVQMQFTVVIEMTNGKIKSIKYRVSEEQKRRFDS” to “DEDLAKRFVTFIKIMLNGDPDKLEKMMDENATVNVGDRRLTGHETIAKDLHRLINESRVHIQLRDFDVRPGRVELEFEAERKHDGRPHTSRFIVIVKDHNGKMVKIVVKQTK”, the protease stability score rises from 0.49 to 1.02.

First: DEDLARRLAEEMVKKATHGDEDTVRELIDPNVKFRYGDKDVEGRENFATELAEDMRTADHVHLKQVTIRGDTVQIDMRMVFDGSEDRHDLRLRAHNGKVQEVTIDQG
Second: DEDLDKQAQEFIHAMQEGDPQRLSEQMDPNARFHVGEKNIHGKEEVMRDFQRTVDQAEIEFKEYSVRAEPGRVRIKLHYVDNNDGRPHSKVQDMVIVFHNGKLVVIDVNDSQ
The protease stability score of the first is lower: -0.112 for the first, 0.236 for the second.

First: DEDLERIIRRFMTALETGDPEELKKQMDENVRVQVGDKVLNGREEAAKHWTKVRDDLRIKIDTFHVENNGNRIDLSVDAEAEHNGRPQRYTLHMKAQVHNGKIKNATFTREQ
Second: DEDLERKAKKYIDALDTGDPDEVSKLVDPNVKFMYGDKTFHGRDQLRRIIQRISDQQRVHVDIKTFSAKGDKVEIKARIEVETDGRPRQFHAIYRMRVHNGKITHISVEMRQ
The protease stability score of the first is lower: 0.868 for the first, 1.23 for the second.

First: DEDLERKVKELMEVLKSGDESKWMEMVDPNARVQVGDTEIHGRENRREDLKRHKEDSRLDLKSYNVRVHNGQVEVHMSYTYEHNGQPRTSQATARFQLHNGRITEVNVNTTK
Second: DEDLFRRLSELMHAVTNGDEEELVKQADKDARIQYGDKVFHGMDEAARELVRQQKEIRQSWEIKSWDHQGDKVRVTIKNSQDHDGRPHSNRIDVEVKQRNGKVTTARFQTHP
The protease stability score of the first is lower: -0.309 for the first, 0.148 for the second.

Going from “DEDLIELAKELMHALQEGDEKRLQDLIDPNASAQIGDHRVHGMDEVLSTLVEHQHNQRVRIDRMEADVHNGTARVRIDQQFEHNGNPDKKVLVYEMTANNGKLKHYKLDEDK” to “DEDLKHLFHTFQKVLEEGNREKLRRLADENVTVSYGDKRVHGMESFARQVKEERDEQRVVINIRKVDVSGDQVRVVADVEREHNGKPDRKNLVMEANAEGDKFREVKYTEHG”, the protease stability score falls from 0.268 to 0.151.

Going from “DEDLKKRFKRMLRNLQNNNEENAHELMDPNARWRYGDKVLHGHEQLIEEWKRIHDRMRVEYKSVEVTASGDKVVVEIVFTRHKNGSPDSDNTRWKAVYNNGKLKDMMVTEDG” to “DEDLKQQFDELVEIKKNGDEDRLVEQADENVKAQVGDKDVHGMKEIAHNIRHTVERIRVEIKSMEVDAQGNRVHVENDFVENNNGKPHRKVVDMKFIFHNGTLKSYTERDDK”, the protease stability score falls from 0.637 to -0.608.

First: DEDLLKQADRWVKNLTRGNFKDLQKLFPPDATVQYGDNHIHGMEKISHEWKKEQEEMRIRVDRVQNEHQGEKAVVDLHYKVTHNGKPEENVVILFIEKHNGHMIFMKIQKTG
Second: DEDLLKQLHTYLRAHETGDRSRLRKLMDPNAEVRIGNHELHGREEILTQQVEEAHKITQYFEIDSVEVRPNSIKVKAHVSMNVNGQPFRTEVEYDVRIRNGRIQEITYRLPEEFLREVNR
The protease stability score of the first is higher: 0.739 for the first, -0.229 for the second.
